T1: CYNO-TNFR2-His (cynomolgus monkey TNFR2, His tag) (cynomolgus monkey, UniProt A0A2K5VET2 132-366)
T1 construct: Soluble antigen of the ForteBio assay; also called cTNFR2; not shown: His tag
T1 sequence: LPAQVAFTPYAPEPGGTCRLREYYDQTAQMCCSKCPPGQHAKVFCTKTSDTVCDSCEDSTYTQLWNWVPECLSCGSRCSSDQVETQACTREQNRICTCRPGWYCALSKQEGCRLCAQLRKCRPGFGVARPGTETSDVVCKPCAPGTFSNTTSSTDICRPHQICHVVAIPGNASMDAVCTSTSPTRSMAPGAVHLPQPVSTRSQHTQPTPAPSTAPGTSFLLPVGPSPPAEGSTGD

T2: hTNFR2 protein (coated on the microplate in the blocking ELISA) (human, UniProt P20333 23-257)
T2 construct: The construct coated in the ELISA is not described (it may or may not be the immunogen, Sino biological 10417-H03H)
T2 sequence (looked up): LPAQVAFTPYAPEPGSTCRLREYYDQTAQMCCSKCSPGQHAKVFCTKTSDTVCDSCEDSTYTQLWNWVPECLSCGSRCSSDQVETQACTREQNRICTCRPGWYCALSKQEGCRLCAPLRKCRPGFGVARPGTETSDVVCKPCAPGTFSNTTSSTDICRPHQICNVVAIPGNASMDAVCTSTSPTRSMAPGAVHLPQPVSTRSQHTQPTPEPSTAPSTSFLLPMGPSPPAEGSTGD

T3: rh-TNFR2-His (recombinant human TNFR2, His tag) (human, UniProt P20333 23-257)
T3 construct: Soluble antigen of the ForteBio assay; not shown: His tag
T3 sequence (looked up): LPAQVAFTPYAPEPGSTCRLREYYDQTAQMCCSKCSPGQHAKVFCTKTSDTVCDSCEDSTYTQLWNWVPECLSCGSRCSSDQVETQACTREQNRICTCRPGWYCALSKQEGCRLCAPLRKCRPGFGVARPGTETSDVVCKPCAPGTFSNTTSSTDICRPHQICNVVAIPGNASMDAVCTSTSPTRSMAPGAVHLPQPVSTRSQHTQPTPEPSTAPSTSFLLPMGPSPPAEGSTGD


How the values were obtained:
[1] = target: T1, CYNO-TNFR2-His (cynomolgus monkey …); assay: BLI (ForteBio), antibody on sensor, 100 nM CYNO-TNFR2-His in solution, 1:1 model
Procedure: (§1) In the present invention, the equilibrium dissociation constant (KD) for the binding of the 3 exemplary chimeric antibodies of the present invention described above to human TNFR2 (hTNFR2), cynomolgus monkey TNFR2 (cTNFR2), murine TNFR2(mTNFR2), and human TNFR1(hTNFR1) was determined by biological optical interferometry (ForteBio). For comparison, the equilibrium dissociation constant (KD) of a positive control antibody OPI (humanized antibody SBT-002e in WO 2017083525, VH sequence of SEQ ID NO: 58, VL sequence of SEQ ID NO: 59) was determined.
(§2) The ForteBio affinity assay was performed according to the prior art (Estep, P, et al., High throughput solution based measurement of antibody-antigen affinity and epitope binning. MAbs, 2013.5(2): p. 270-278). Briefly, a sensor was equilibrated offline in an assay buffer for 30 min, and was equilibrated online for 60 s to establish a baseline. The purified antibodies obtained as described above were loaded online onto an AHQ sensor (ForteBio) for the ForteBio affinity assay. The sensor with the loaded antibodies was then exposed to each of 100 nM hTNFR2, cTNFR2, mTNFR2, and hTNFR1 antigens for 5 min before transferring the sensor to an assay buffer for 5 min of dissociation for dissociation rate measurement. The kinetic analysis was performed using a 1:1 binding model.

[2] = target: T2, hTNFR2 protein (coated on the …); assay: blocking ELISA: hTNFR2 coated on the plate, binding of biotinylated TNFα blocked by the antibody; the table row is headed EC50; unit taken from the axis log Conc nM
Procedure: The ability of the chimeric antibodies 3C4, 69B1, and 72G8 and the control antibody OPI to block the binding of human TNFα to hTNFR2 was assayed by ELISA.
The hTNFR2 protein was resuspended and dissolved to a concentration of 2 μg/mL with PBS, and a microplate was coated with the protein and incubated overnight. The plate was blocked with 5% BSA for 1 h, and a biotinylated antigen (Recombinant Biotinylated TNFα protein (ACRO)) was diluted to 2 μg/mL and added to the plate at 10 μL/well. The antibodies prepared as described above (3C4, 69B1, and 72G8) were each diluted in a gradient starting from the maximum concentration of 300 nM for a total of 8 or 12 dilution gradients. The diluted antibodies were added at 100 μL/well and incubated in PBS on ice for 30 min. The antigen-antibody mixture was incubated in a microplate for 90 min and washed three times with PBS, and the supernatant was discarded. 100 μL of Avidin-HRP (Invitrogen) diluted at a 1:5000 ratio was added to each well, incubated at room temperature for 30 min, and washed six times with PBS. A TMB chromogenic solution (solarbio) was added to the plate at 100 μL/well for color development for 1 min, and the reaction was stopped by adding a stop buffer (solarbio) at 100 μL/well. The plate was read on a microplate reader at OD₄₅₀ and OD₆₂₀.

[3] = target: T3, rh-TNFR2-His (recombinant human TNFR2, …); assay: BLI (ForteBio), antibody on sensor, 100 nM rh-TNFR2-His in solution, 1:1 model
Procedure: as §1, §2

Binder | Kd [1] | koff [1] | kon [1] | IC50 [2] | Kd [3] | koff [3] | kon [3]
positive control antibody OPI (humanized antibody SBT-002e in WO 2017083525) (antibody, V domains shown, also called Benchmark OPI) VH: QVTLKESGPALVKPTQTLTLTCTFSGFSLSTSGMGVGWIRQPPGKALEWLAHIWWDDDKFYNPSLKSRLTISKDTSKNQVVLTMTNMDPVDTATYYCARLTGTRYFDYWGQGTTVTVSS VL: DVQMTQSPSSLSASVGDRVTITCKASQDINKFIAWYQQKPGKAPKLLIHYTSTLQPGIPSRFSGSGSGRDYTFTISSLQPEDIATYYCLQYGNLWTFGGGTKVEIK | 1.15 nM | 0.000328 s⁻¹ | 284000 M⁻¹ s⁻¹ | 4.56 nM | 4.18 nM | 0.000229 s⁻¹ | 54800 M⁻¹ s⁻¹
chimeric antibody 3C4 (antibody, human IgG1, kappa, V domains shown) VH: QVQLQQSGPELVKPGASVTISCKASDYSFTNYYIHWVKQRPGQGLEWIGWIYPGNVITKYHEKFKGKAILTADTSSTTAYMQLNSLTSEDSAVYFCARSRATGYFDYWGQGTTLTVSS VL: DIQMTQTTSSLSASLGDRVTISCRASQDIRNYLNWFQQKPDGTIKLLIYYTSRLHSGVPSRFSGSGSGTDYSLTISNLEQEDMATYFCQQFNTLPWTFGGGTKLEIKR | 1.42 nM | 0.00201 s⁻¹ | 1.41e+06 M⁻¹ s⁻¹ | 3.11 nM | 1.36 nM | 0.00176 s⁻¹ | 1.29e+06 M⁻¹ s⁻¹
chimeric antibody 69B1 (antibody, human IgG1, kappa, V domains shown) VH: QIQLVQSGPELKKPGETVKISCKASGYTFTDYSMNWVKQAPGKGLKWMGWLNTETGEPIYADDFKGRFVFSLETSASTAYLEINNLNDEDTATYFCAREAIYYGTSYVLDYWGQGTSVTVSS VL: DIVLTQSPASLAVSLGQRATISCRASESVEYYGTNFMQWYQQKPGQPPKLLIYSASNVESGVPARFSGSGSGTDFSLNIHPVEEDDIAVYFCQQSRKDPSTFGEGTNLEIKR | 1.11 nM | 0.00198 s⁻¹ | 1.79e+06 M⁻¹ s⁻¹ | 2.15 nM | 0.265 nM | 0.000519 s⁻¹ | 1.96e+06 M⁻¹ s⁻¹

— patent US20240026019A1 (Innovent, published 2024)
